The values below come from patent US20250002610A1 (Genmab, published 2025).

What is called EC50 (read off the curve) is the concentration that produces a half-maximal response. By EC50 is commonly meant the concentration giving half of the maximal effect. A lower EC50 goes with an effect from little substance.

In one assay the target is T1, human DR4HsECD-FcHisCtag (human).
T1 construct: also called recombinant human DR4
Description: BLI, antigen captured on anti-Penta-HIS sensors. The procedure: The binding affinity of BisG1-FAPα-FERL/DR4-FERR, BisG1-b12-FERL/DR4-FERR and control BisG1-FAPα-FERL/b12-FERR to recombinant human and cynomolgus monkey DR4 protein was determined using label-free biolayer interferometry on an Octet HTX instrument (Sartorius).
The protocol detailed in Example 5 was used with the following differences: anti-Penta-HIS biosensors (Sartorius, Cat #18-5120) were used; the sensors were preconditioned by exposure to 10 mM glycine (Sigma-Aldrich, Cat #15527) buffer pH 1.5 for 5 s, followed by neutralization in Sample Diluent (Sartorius, Cat #18-1104) for 5 s; both steps were repeated 2 times; the sensors were loaded with 50 nM human DR4HsECD-FcHisCtag (SEQ ID NO: 66), or cynomolgus DR4MfECD-FcHisCtag (SEQ ID NO: 67), for 600 s; the dissociation time was 1,000 s; The window of interest for the dissociation time was set at 100 s for the cynomolgus antigen and at 1,000 s for the human antigen.
(In general: BLI is a label-free optical method that tracks binding on a fibre tip over time.)

Assay [1] has as its target T2, rat FAPα on Expi293F cells (rat (Rattus norvegicus), UniProt P97321 1-761 (mouse entry)).
T2 chain: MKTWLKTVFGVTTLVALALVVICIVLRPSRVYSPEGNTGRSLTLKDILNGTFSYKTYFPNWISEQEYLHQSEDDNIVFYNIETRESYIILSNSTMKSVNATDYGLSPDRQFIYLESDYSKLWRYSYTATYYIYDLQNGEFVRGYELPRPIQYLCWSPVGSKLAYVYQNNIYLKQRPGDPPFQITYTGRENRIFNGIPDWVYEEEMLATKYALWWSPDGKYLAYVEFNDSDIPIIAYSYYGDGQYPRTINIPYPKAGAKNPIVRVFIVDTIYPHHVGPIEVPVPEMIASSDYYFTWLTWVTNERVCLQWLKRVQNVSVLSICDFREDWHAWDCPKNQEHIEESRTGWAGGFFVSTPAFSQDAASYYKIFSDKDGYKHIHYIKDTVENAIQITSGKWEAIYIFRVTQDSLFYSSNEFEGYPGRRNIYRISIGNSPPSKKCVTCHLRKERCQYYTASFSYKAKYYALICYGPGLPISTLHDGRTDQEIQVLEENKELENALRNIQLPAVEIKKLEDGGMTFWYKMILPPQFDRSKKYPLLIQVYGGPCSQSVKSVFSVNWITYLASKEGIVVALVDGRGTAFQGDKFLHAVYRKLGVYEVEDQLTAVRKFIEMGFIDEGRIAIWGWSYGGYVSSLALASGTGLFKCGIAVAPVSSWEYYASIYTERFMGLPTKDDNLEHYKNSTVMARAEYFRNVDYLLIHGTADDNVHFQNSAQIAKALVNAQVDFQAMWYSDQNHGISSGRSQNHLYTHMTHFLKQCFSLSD
In words: flow cytometry on Expi293F cells transiently expressing rat FAPα, gMFI PE. On the procedure: Binding of BisG1-FAPα-FERL/DR4-FERR, BisG1-FAPα-FEAL/b12-FEAR and IgG1-FAPα-FERL to FAPα of species commonly used for nonclinical toxicology studies was assessed by flow cytometry using Expi293F cells transiently expressing FAPα from different animal species. IgG1-b12 was included as negative control.
Expi293F cells expressing recombinant FAPα from various species (human, cynomolgus monkey, dog, pig, rat or mouse) were seeded (20,000 cells/well) in 96-Well round bottom plates (Greiner Bio-one, Cat #650101). Antibody dilutions were prepared using FACS buffer, consisting of PBS (Capricorn Scientific, Cat #PBS-10XA, diluted to 1×PBS in distilled water)+1% BSA (Roche, Cat #10735086001)+0.02% Sodium Azide (Bio-World, Cat #41920044-3). Plates were centrifuged, supernatant was removed, and cells were resuspended in 100 μL of antibody dilutions (concentration range 30-0.00017 μg/mL with three-fold serial dilutions using FACS buffer) of BisG1-FAPα-FERL/DR4-FERR, BisG1-FAPα-FEAL/b12-FEAR, IgG1-FAPα-FERL and IgG1-b12 and incubated for 30 min at 4° C. […] Antibody binding to viable cells (gMFI of PE on TO-PRO-3 negative cells) was analyzed by flow cytometry on a FACS Celesta and FACS_Diva software (first two experiments) or iQue® 3 and FlowJo software (last experiment). gMFI was determined and visualized using GraphPad Prism. Binding curves were analyzed using nonlinear regression analysis. […]
For orientation: A flow cytometer gives signals particle by particle.

Assay [2] concerns the target T3, human DR4 (Death Receptor 4), cell surface expressed on human tumor cell lines (human, UniProt O00220 24-468).
T3 construct: also called TNFRSF10A; TRAIL-R1
T3 sequence: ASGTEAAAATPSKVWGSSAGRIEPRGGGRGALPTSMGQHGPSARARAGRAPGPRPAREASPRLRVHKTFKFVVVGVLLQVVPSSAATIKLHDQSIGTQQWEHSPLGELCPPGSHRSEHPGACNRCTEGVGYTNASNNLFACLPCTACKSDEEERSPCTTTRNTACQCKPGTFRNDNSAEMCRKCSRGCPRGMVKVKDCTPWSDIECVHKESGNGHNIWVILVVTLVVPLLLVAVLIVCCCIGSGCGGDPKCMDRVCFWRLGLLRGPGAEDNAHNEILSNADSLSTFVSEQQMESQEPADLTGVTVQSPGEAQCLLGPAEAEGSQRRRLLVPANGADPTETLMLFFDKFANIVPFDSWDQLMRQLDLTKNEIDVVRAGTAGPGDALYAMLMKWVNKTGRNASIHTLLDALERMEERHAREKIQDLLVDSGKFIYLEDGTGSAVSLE
Description: flow cytometry, HCT-15 cells, average ± SEM; HCT-15 cells, average of n = 3.

T1 sequence (chain, as listed by the source limits assumed): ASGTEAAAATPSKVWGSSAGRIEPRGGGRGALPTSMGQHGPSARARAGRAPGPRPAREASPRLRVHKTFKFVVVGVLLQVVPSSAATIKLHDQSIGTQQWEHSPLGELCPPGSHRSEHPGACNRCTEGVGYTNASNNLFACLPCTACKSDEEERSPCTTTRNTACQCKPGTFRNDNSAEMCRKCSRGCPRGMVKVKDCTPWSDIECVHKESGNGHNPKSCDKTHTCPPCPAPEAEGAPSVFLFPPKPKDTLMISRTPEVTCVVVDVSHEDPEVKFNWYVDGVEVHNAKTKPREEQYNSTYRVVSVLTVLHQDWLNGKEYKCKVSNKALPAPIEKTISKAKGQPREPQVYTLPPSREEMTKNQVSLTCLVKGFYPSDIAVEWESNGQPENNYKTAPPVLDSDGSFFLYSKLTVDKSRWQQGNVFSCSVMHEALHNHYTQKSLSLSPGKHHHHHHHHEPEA

B1: BisG1-FAPα-FERL/b12-FERR (bispecific antibody, human IgG1, kappa)
heavy 1: EVQLLESGGGLVQPGGSPRLSCEASGFTFSSYALSWVRQAPGKGLEWVSAISGSGGGRYYADSVKGRFTISRDNSKNTLFLQMNSLRAEDTAVYYCAKEGYSSSGTYWDHWGQGTLVTVSSASTKGPSVFPLAPSSKSTSGGTAALGCLVKDYFPEPVTVSWNSGALTSGVHTFPAVLQSSGLYSLSSVVTVPSSSLGTQTYICNVNHKPSNTKVDKRVEPKSCDKTHTCPPCPAPEFERGPSVFLFPPKPKDTLMISRTPEVTCVVVDVSHEDPEVKFNWYVDGVEVHNAKTKPREEQYNSTYRVVSVLTVLHQDWLNGKEYKCKVSNKALPAPIEKTISKAKGQPREPQVYTLPPSREEMTKNQVSLTCLVKGFYPSDIAVEWESNGQPENNYKTTPPVLDSDGSFLLYSKLTVDKSRWQQGNVFSCSVMHEALHNHYTQKSLSLSPG
light 1: AIQMTQSPSSVSASVGDRVTITCRASQGVSSWLAWYQQKPGRAPKLLIYVASTLQSGVPSRFSGSGSGTDFTLTINSLQPEDFATYYCQQANSFPPTFGQGTRLEMKRTVAAPSVFIFPPSDEQLKSGTASVVCLLNNFYPREAKVQWKVDNALQSGNSQESVTEQDSKDSTYSLSSTLTLSKADYEKHKVYACEVTHQGLSSPVTKSFNRGEC
heavy 2: QVQLVQSGAEVKKPGASVKVSCQASGYRFSNFVIHWVRQAPGQRFEWMGWINPYNGNKEFSAKFQDRVTFTADTSANTAYMELRSLRSADTAVYYCARVGPYSWDDSPQDNYYMDVWGKGTTVIVSSASTKGPSVFPLAPSSKSTSGGTAALGCLVKDYFPEPVTVSWNSGALTSGVHTFPAVLQSSGLYSLSSVVTVPSSSLGTQTYICNVNHKPSNTKVDKRVEPKSCDKTHTCPPCPAPEFERGPSVFLFPPKPKDTLMISRTPEVTCVVVDVSHEDPEVKFNWYVDGVEVHNAKTKPREEQYNSTYRVVSVLTVLHQDWLNGKEYKCKVSNKALPAPIEKTISKAKGQPREPQVYTLPPSREEMTKNQVSLTCLVKGFYPSDIAVEWESNGQPENNYKTTPPVLDSDGSFFLYSRLTVDKSRWQQGNVFSCSVMHEALHNHYTQKSLSLSPG
light 2: EIVLTQSPGTLSLSPGERATFSCRSSHSIRSRRVAWYQHKPGQAPRLVIHGVSNRASGISDRFSGSGSGTDFTLTITRVEPEDFALYYCQVYGASSYTFGQGTKLERKRTVAAPSVFIFPPSDEQLKSGTASVVCLLNNFYPREAKVQWKVDNALQSGNSQESVTEQDSKDSTYSLSSTLTLSKADYEKHKVYACEVTHQGLSSPVTKSFNRGEC
In the case of B1, the binding result with human DR4HsECD-FcHisCtag was “no binding (tested: 800 nM)”.

B2: IgG1-FAPα-FERL (antibody)
heavy: B1 heavy 1
light: B1 light 1
notes: Bivalent monoclonal IgG1 kappa
As to B2, in assay [1], the “EC50 (read off the curve)” value is around 0.2 µg/mL.

B3: IgG1-DR4-FERR (antibody, V domains shown)
VH: QVQLQESGPGLVKPSGTLSLTCAVSGGSISSYSWWSWIRQPPGKGLEWIGELYHSGSTNYNPSLKSRVTISVDKSKNQFSLKLRSVTAADTAVYYCVRGVATIDYWGQGTLVTVSS
VL: QSALTQPPSASGSPGQSVTISCTGTSSDVGGYNFVSWYQQDPGKAPKLLIYEVTKRPSGVPDRFSGSKSGNTASLTVSGLQAEDEADYYCSSYAGSNNVMFGGGTKLTVLG
notes: Bivalent monoclonal IgG1 lambda
Turning to B3, the midpoint of the response in assay [2], the EC50, lay at 0.17 µg/mL.
